Measurements from US20170157250A1.

Assays:
[1] = target: human AXL (full length, on cells) (human (Homo sapiens)) (UniProt P30530); assay: flow cytometry, A431 cells pre-incubated with Gas6 (competitor); mean (s.d.); less accurate due to low binding
[2] = target: human AXL (full length, on cells) (human (Homo sapiens)) (UniProt P30530); assay: flow cytometry, A431 cells pre-incubated with 10 µg/mL Gas6 (competitor)
[3] = target: human AXL (full length, on cells) (human (Homo sapiens)) (UniProt P30530); assay: flow cytometry, A431 cells, without Gas6; mean (s.d.)
[4] = target: human AXL (full length, on cells) (human (Homo sapiens)) (UniProt P30530); assay: flow cytometry, A431 cells pre-incubated with 10 µg/mL Gas6 (competitor); mean (s.d.); less accurate due to low binding
[5] = target: human AXL (full length, on cells) (human (Homo sapiens)) (UniProt P30530); assay: flow cytometry, A431 cells pre-incubated with Gas6 (competitor); mean (s.d.)
[6] = target: human AXL (full length, on cells) (human (Homo sapiens)) (UniProt P30530); assay: flow cytometry, A431 cells pre-incubated with 10 µg/mL Gas6 (competitor); mean (s.d.)

Sequence of human AXL (full length, on cells) (human (Homo sapiens)) (P30530 26-894 limits assumed): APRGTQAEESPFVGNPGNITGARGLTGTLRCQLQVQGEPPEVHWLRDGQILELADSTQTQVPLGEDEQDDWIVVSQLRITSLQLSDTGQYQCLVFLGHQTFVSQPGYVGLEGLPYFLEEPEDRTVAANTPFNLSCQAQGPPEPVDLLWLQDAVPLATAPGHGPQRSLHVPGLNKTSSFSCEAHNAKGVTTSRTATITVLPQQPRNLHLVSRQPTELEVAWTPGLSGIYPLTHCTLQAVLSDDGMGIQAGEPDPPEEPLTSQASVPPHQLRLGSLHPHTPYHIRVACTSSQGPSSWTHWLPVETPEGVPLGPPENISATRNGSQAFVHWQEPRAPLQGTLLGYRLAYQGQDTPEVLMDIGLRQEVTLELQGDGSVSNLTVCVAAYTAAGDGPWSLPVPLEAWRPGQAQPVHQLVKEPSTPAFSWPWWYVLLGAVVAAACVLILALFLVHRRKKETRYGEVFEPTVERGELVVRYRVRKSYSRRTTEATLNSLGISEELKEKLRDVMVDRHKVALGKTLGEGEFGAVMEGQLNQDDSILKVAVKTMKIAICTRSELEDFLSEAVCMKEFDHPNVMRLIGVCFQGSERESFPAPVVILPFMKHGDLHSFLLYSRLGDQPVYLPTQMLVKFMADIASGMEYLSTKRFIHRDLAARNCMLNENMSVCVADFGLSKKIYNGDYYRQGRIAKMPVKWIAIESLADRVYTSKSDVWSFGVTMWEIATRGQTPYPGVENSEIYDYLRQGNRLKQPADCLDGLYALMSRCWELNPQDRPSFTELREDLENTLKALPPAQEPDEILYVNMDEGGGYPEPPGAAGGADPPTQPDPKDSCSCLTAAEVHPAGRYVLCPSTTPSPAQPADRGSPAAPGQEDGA

B1: YW327.6S2 (antibody, from another filing, V domains shown)
VH: EVQLVESGGGLVQPGGSLRLSCAASGFSLSGSWIHWVRQAPGKGLEWVGWINPYRGYAYYADSVKGRFTISADTSKNTAYLQMNSLRAEDTAVYYCAREYSGWGGSSVGYAMDYWGQGTLVTVSS
VL: DIQMTQSPSSLSASVGDRVTITCRASQDVSTAVAWYQQKPGKAPKLLIYSASFLYSGVPSRFSGSGSGTDFTLTISSLQPEDFATYYCQQSYTTPPTFGQGTKVEIK
In the case of B1, the EC50 [1] is reported as 1.9 mg/L, the fold change of EC50 with Gas6 pre-incubation against without Gas6 [2] is reported as 21 fold and the maximal binding in presence of Gas6 (% of binding without Gas6) [2] is reported as 19%. The EC50 [3] was 0.09 mg/L, the EC50 [4] was 1.9 mg/L and the maximal binding in presence of Gas6 (% of binding in absence of Gas6) [5] was 41%. It also gave a maximal binding in presence of Gas6 (% of binding in absence of Gas6) [6] of 41%.
